Test results: the nanobody polyreactivity screen of Harvey et al. (2022)

Experiment: yeast display, Sf9 membrane polyspecificity reagent, FACS + sequencing; frameworks hold sequencing errors
In short: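 Sorting gates, low and high (top ~1%), were placed on anti-HA fluorescence to track expression and on streptavidin fluorescence to track reagent binding. A clone's polyreactivity label is taken from the gate it came out of. The reagent was 10% biotinylated, detergent-solubilized Sf9 membrane, applied for 1 hour at 4 °C to galactose-induced yeast display cells.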

Sequence	polyreactivity (PSR sort gate)
QVQLVESGGGLVQAGGSLRLSCAASGSIFPYNAMGWYRQAPGKERELVATINSRGGRTYYADSVKGRFTISRDNAKNTVYLQMNSLKPEDTAVYYCARYYSSALRYGYWGQGTQVTVSS	low polyreactivity
HVQLVESGGGLVQAGGSLRLICAASGRSFSPYAMGWYRLAPGKERELVAAITNGDSTNYADSVKGRFTISRDNAKNTVYLLMNSLKPEDTAVYYCNAAAEISSFDYDYWGQGTQVTVSS	low polyreactivity
QVQLVESGGGLVQAGGSLRLSCAASGYTFRYYAMGWYRQAPGKERELVARITGRAGSTYYADSVKGRFTISRDNAKNTVYLQMNSLKPEDTAVYYCAASIREGFYWGQGTQVTVSS	high polyreactivity
QVQLVESGGGLVQAGGSLRLSCAASGSIFSINTMGWYRQAPGKERELVATITWSVGSTNYADSVKGRFTISRDNAKNTVYLQMNSLKPEDTAVYYCNADSSRWPYRLYRFYYWGQGTQVTVSS	low polyreactivity
QVQLVESGGGLVQAGGSLRLSCAASGRIFGTYVMGWYRPAPGKERELVARITGGGSTNYADSVKGRFTISRDNAKNTVYLEMNSLKPEDTAVYYCARDYGPYLSPEKPAPMDYWGQGTQVTVSS	low polyreactivity
QVQLVESGGGLVQAGGSLRLSCAASGFIFGGNAMGWYRQAPGKERELVAAISSGGRTYYADSVKGRFTISRDNAKNTVYLQMNSLKPEDTAVYYCNAAEQKYSIYYAFDTGPYDYWGQGTQVTVSS	low polyreactivity
QVQLVESGGGLVQAGGSHRLSCAASGRIFTYNAMGWYRQAPGKERELVAVITSGGSTYYADSVKGRFTISRDNAKNTVYLQMNSLKPEDTAVYYCNAVYFRYRYNYWGQGTQVTVSS	high polyreactivity
QVQLVESGGGLVQAGGSLRLSCAASGSIFSANAMGWYRQAPGKERELVAAINSGGGTYYADSVKGRFTISRDNAKNTVFLQMNSLKPEDTAVYYCATDAVYIKGKYYTHEYWGQGTQVTVSS	high polyreactivity
HVQLVESGGGLVQAGGSLRLSCAASGSTFSYYAMGWYRQAPGKERELVAAITSGGRTKYADSVKGRFTISRDNAKNTVYLQMNSLKPEDTAVYYCAKRIEKFSGSLAGRWYDYWGQGTQVTVSS	high polyreactivity
QVQLVESGGGLVQAGGSLRLSSAASGRIFYLNAMGWYRQAPGIERELVAAINTSGDSTYYADSVKGRFTISRDNAKNTVYLQMNSLKPEDTEVYYCAAYVIGPDHFIYDYWGQGTQVTVSS	low polyreactivity
QVQLVESGGGLVQAGGSLRLSCAASGSIFSSNTMGWYRQAPGKERELVAAITSGGTTYADSVKGRFTISRDNAKNTVYLQMNSLKPEDTAVYYCAARYYIHRGYDYDYWGQGTQVTVSS	high polyreactivity
QVQLVESGGGLVQAGGSLRLSCAASGRIFSRYAMGWYRQAPGKERELVAGITRSGTTTYYADSVKGRFTISRDNAKNTVYLQMNSLKPEDTAVYYCAAPPIRPNLYDYWGQGTQVTVSS	high polyreactivity
QVQLVESGGGLVQAGGSLRLSCAASGFTFWRYAMGWYRQAPGKERELVAAINWSGGSTNYADSVKGRFTISRDNAKNTVYLQMNSLKPEDTAVYYCAVDPYQNDPSRWYTYPRRGNYWGQGTQVTVSS	high polyreactivity
QVQLVASGGGLLQAGGSLRLSCAASGSIVGLYAMGWYRQAPGNETELVAAISWSAGRTYYADTVKGRFTISRDNAKNTVYLQMNSLIPEETAVYYCNAPYLHYVFVFTDYSQRYDYWGQGTQVTVSS	high polyreactivity
QVQLLESRGGLVQAGGSLRLSCPASGITFSRCAMGWYRQAPGKERELVAAITSGGRTNYADSVKGRFTISRDNATNTVYLQMISLKPEDTAVYYCAASYYYLSWRMDYWGQGTQVTVSS	high polyreactivity
QVQLVESGGGVVQAGGSLRLTCAASGIIFYRYSMGWYSQAPGKERELVAAISIGGGSTYYADSVKVRFTISRYNAKNTVYLEMNSLKPEDTAVYYCAADTYNYVGYNGHDYWGQGTQVTVSS	low polyreactivity

Sequence	polyreactivity (PSR sort gate)
QVQLVESGGGLVQAGGSLRLSCAASGRTFRTYDMGWYRQEPGKERELVAAITSRAGSTYYADSVKGRFTISRDNAKNTVFLQMNRLKPEDTAVYYCAKQYYYGWYWGEDYWGQGSQVTVSS	low polyreactivity
QVQLVESGGGLVKAGGILRLSCAASGYIFVRYAMGWYRQAPGKERELVAAISYRGGSTYADSVKGRFTISRDNAKNTVYLQMNRLKPEDTAVYYCAAQRWYVYGQKYHYGYWGQVTQVTVSS	high polyreactivity
QVQLVESGGGLVQAGGSLRLSCAASGSISYIYTMGWDRQAPGKQRELVAAMSGSGSTYYADSVKGRFTISRDNAKNTVYLQMNSLKQEDTAVHYCNAGSGGLNFQEVPHGYDYWGQGTQVTVSS	low polyreactivity
QVQLVQSGGGLVQAGGSLRLSCAASGNIFKGYAMRWYRQAPVKERELVAAISKSGGSTYYADSVKGRFTMSRDNAKNTVYLQLNSLKPADTAVYYSNTYTYAGYNYWGQGTQVTVSS	high polyreactivity
QVHLVESGGGLVQAGGSLRISCAASGRIFWWYAMGWYRQAPGKERELVAAISTGSRTYYADSVKGRFTISRDNAKNTVFLQMNRLKPEDTAVYYCVADGLYSVSRSSIFEYWGHGTQVTVSS	low polyreactivity
QVQLVESGGGLVQAGGSLRLSCAASGFIFTDYAMGWYRQAPGKERELVATISWSGSSTYYADSVKGRFTISRDNAKNTVYLQMNSLKPEDTAVYYCAAEFWYTYPYLVDYWGQGTKVTVSS	low polyreactivity
QVQLVDSGGGLVQAGGSLLLSCAASGSISYQNAMGWYRQAPGKERELVAANSGDGDSTYYADSVKGRFTISRDNAKNTVYLQMNRLKPEDTAVYYCAAEPNVYFSVFVLFTSDYWGQGTLVTVSS	low polyreactivity
QVQLVESGGGLVQAGGSLRLSCAASGSTFGGYAMGWYRQEPGKERELVAAISSRGARTYYADSVKGRFTISRDNAKKTVYLQMNSLKPEDTAVYYCAARGPLDRYGYWGQGTQVTVSS	high polyreactivity
QVQLVESGGGLVQAGGSLRLSCAASGRIFYGNTMGWSRQAPGKERELVAAISLRGGSTYYADSVKGRFTISRDTAKNTVSLQMNSLKPEDTAVYYCAATGGRGPRRYYWGQGTQVTVSS	high polyreactivity
QGQLVESGGGLVQAGGSLRLSCAASGSTFPTNSMGWYRPAPGNDRELVAAITGGASTYYADSVKGRFTISRDNAKNTVYLQMNSLKPEDTAVYYCAADDSWFYYGYGYWGQGTQVTVSS	low polyreactivity
QVQLVESGVGLVQAGGSLRLSCAASGRIFRWYPMGWYRQAPGKERELVASITWNGGSTYYADSVKGRFTISRDNAKNTVYLQMKSLKPEDTAVYYCAVPFYRGPEMGYWGQGTQVTVSS	high polyreactivity
QVQLVESGGGLVQAGGSLRLSCAASGSTFSVNAMGWYRQAPGKERELVAAITRSGGSTYYEDSVKGRFTISRENAKNTVYLQMNSLKPEDTAVYYCAAVIFPLGEYWGQGTQVTVSS	low polyreactivity
QVQLVESGGGLVQAGGSLRLSCAATGSNLIYVMGGYRQAPGKERELVASITFSGGSTYYADSVKGRFTISRDNAKNTVYLQMNRLKPEDTAVYYCAAVPLWDYKFFYYMLYDYWGQGTQVTVSS	low polyreactivity
QVQLQESGGGLVQAGGDLRLSCAASGNIFRDYIMGWYRQAPGKELEFVAGIDRGANTNYADSVKGRFTISRDNAKNTVYLQMNSLKPEDTAVYYCAVHTAIVPDFIYWGQGTQVTVSS	low polyreactivity
QVQLQESGGGLVQAGGSLRLSCAASGSIFDGFNMGWYRQAPGKEREFVAAISYGASTYYADSVKGRFTVSRDNAKNSVYLQMNSLKPEDTAVYYCAVYDELYHVLVYWGRGTQVTVSS	low polyreactivity
